Experimental data taken from publication PMC10094494.

Target: D-psicose 3-epimerase from Iocasia fonsfrigidae strain SP3-1 (Iocasia fonsfrigidae strain SP3-1)
Experiment: native gel or EMSA; native-PAGE of the purified recombinant enzyme, run like SDS-PAGE but without SDS, beta-mercaptoethanol and heat

Question: For “D-psicose 3-epimerase from Iocasia fonsfrigidae strain SP3-1 (enzyme)”, which stoichiometry N is on record?
Answer: 2
